Assay results reported in patent US20160024219A1 (Sanofi, published 2016).

B1: Ab11 (antibody, human IgG1, kappa, V domains shown)
VH: EVQLVESGGGLVQPGGSLRLSCAASGFPFSNYWMNWVRQAPGKGLEWVGQIRLKSNNYATHYAESVKGRFTISRDDSKNSLYLQMNSLKTEDTAVYYCTPIDYWGQGTTVTVSS
VL: DIVMTQTPLSLSVTPGQPASISCKSSQSLLYSNDKTYLNWVLQKPGQSPQRLIYLVSKLDSGVPDRFSGSGSGTDFTLKISRVEAEDVGVYYCVQGSHFHTFGQGTKLEIKR
B2: Ab16 (antibody, human IgG1, kappa, V domains shown)
VH: EVQLVESGGGLVQPGGSLRLSCAASGFPFSNYWMNWVRQAPGKGLEWVGQIRLKSNNYATHYAESVKGRFTISRDDSKNSLYLQMNSLKTEDTAVYYCTPIDYWGQGTTVTVSS
VL: DIVMTQTPLSLSVTPGQPASISCKSSQSLLYSNKKTYLNWVLQKPGQSPQRLIYLVSKLDSGVPDRFSGSGSGTDFTLKISRVEAEDVGVYYCVQGSHFHTFGQGTKLEIKR
B3: Ab14 (antibody, human IgG1, kappa, V domains shown)
VH: EVQLVESGGGLVQPGGSLRLSCAASGFPFSNYWMNWVRQAPGKGLEWVGQIRLKSNNYATHYAESVKGRFTISRDDSKNSLYLQMNSLKTEDTAVYYCTPIDYWGQGTTVTVSS
VL: DIVMTQTPLSLSVTPGQPASISCKSSQSLLYSNHKTYLNWVLQKPGQSPQRLIYLVSKLDSGVPDRFSGSGSGTDFTLKISRVEAEDVGVYYCVQGSHFHTFGQGTKLEIKR
B4: Ab22 (antibody, human IgG1, kappa, V domains shown)
VH: EVQLVESGGGLVQPGGSLRLSCAASGFPFSNYWMNWVRQAPGKGLEWVGQIRLKSNNYATHYAESVKGRFTISRDDSKNSLYLQMNSLKTEDTAVYYCTPIDYWGQGTTVTVSS
VL: DIVMTQTPLSLSVTPGQPASISCKSSQSLLYSNSKTYLNWVLQKPGQSPQRLIYLVSKLDSGVPDRFSGSGSGTDFTLKISRVEAEDVGVYYCVQGSHFHTFGQGTKLEIKR
B5: Ab21 (antibody, human IgG1, kappa, V domains shown)
VH: EVQLVESGGGLVQPGGSLRLSCAASGFPFSNYWMNWVRQAPGKGLEWVGQIRLKSNNYATHYAESVKGRFTISRDDSKNSLYLQMNSLKTEDTAVYYCTPIDYWGQGTTVTVSS
VL: DIVMTQTPLSLSVTPGQPASISCKSSQSLLYSNRKTYLNWVLQKPGQSPQRLIYLVSKLDSGVPDRFSGSGSGTDFTLKISRVEAEDVGVYYCVQGSHFHTFGQGTKLEIKR
B6: Ab20 (antibody, human IgG1, kappa, V domains shown)
VH: EVQLVESGGGLVQPGGSLRLSCAASGFPFSNYWMNWVRQAPGKGLEWVGQIRLKSNNYATHYAESVKGRFTISRDDSKNSLYLQMNSLKTEDTAVYYCTPIDYWGQGTTVTVSS
VL: DIVMTQTPLSLSVTPGQPASISCKSSQSLLYSNQKTYLNWVLQKPGQSPQRLIYLVSKLDSGVPDRFSGSGSGTDFTLKISRVEAEDVGVYYCVQGSHFHTFGQGTKLEIKR

Key:
CD52 peptide #741 [1] = biological target: T1, CD52 peptide #741; test: BIACORE (SPR), CD52 peptide #741 chip; antibody after 4 weeks at 45C, pH 7.2 in PBS
T1 construct: also called CD52 peptide #741 chip
Description: (§1) The proteins (85 μg) were diluted in PBS, pH 7.2, to 0.4 mg/ml, and incubated at 45° C. for 4 weeks. Their binding affinity to CD52 peptide was measured on BIACORE™.

CD52 peptide #741 [2] = biological target: T1, CD52 peptide #741; test: BIACORE (SPR), CD52 peptide #741 chip, preliminary constant; antibody after 2 weeks at 45C, pH 7.2 in PBS
Description: as §1

CD52 peptide #741 [3] = biological target: T1, CD52 peptide #741; test: BIACORE (SPR), CD52 peptide #741 chip, preliminary constant; antibody at week 0 (before incubation)
Description: as §1

CD52 peptide #741 [4] = biological target: T1, CD52 peptide #741; test: BIACORE (SPR), CD52 peptide #741 chip, preliminary constant; antibody after 4 weeks at 45C, pH 7.2 in PBS
Description: as §1

CD52 peptide #741 [5] = biological target: T1, CD52 peptide #741; test: BIACORE (SPR), CD52 peptide #741 chip; antibody after 2 weeks at 45C, pH 7.2 in PBS
Description: as §1

CD52 peptide #741 [6] = biological target: T1, CD52 peptide #741; test: BIACORE (SPR), CD52 peptide #741 chip; week 0, reference of the normalization
Description: as §1

| Binder | %T0 (affinity relative to T0) (CD52 peptide #741 [1]) | Kd (CD52 peptide #741 [2]) | Kd (CD52 peptide #741 [3]) | Kd (CD52 peptide #741 [4]) | %T0 (affinity relative to T0) (CD52 peptide #741 [5]) | %T0 (affinity relative to T0) (CD52 peptide #741 [6]) |
| --- | --- | --- | --- | --- | --- | --- |
| B1 | 46.5% | 16.5 nM | 4.12 nM | 8.85 nM | 24.9% | 100% |
| B2 |  | 7.17 nM | 2.77 nM |  |  |  |
| B3 |  | 8.97 nM | 3.5 nM | 33.3 nM |  |  |
| B4 |  |  | 2.44 nM | 187 nM |  |  |
| B5 |  |  | 2.05 nM | 4.15 nM |  |  |
| B6 |  | 6.8 nM | 3.49 nM |  |  |  |
